Reference: the supplement of paper PMC10567573

B1: USP39 (parent)
chain: FQGSMRIFTKKLPHPDLPAEEKEQ

Variants of: B1
Assay: protein stability index of a GFP-peptide fusion (GPS, HEK-293T) (PSI 1-6); higher = more stable
Details: c terminus: a fixed tail appended
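Further: lentivirally expressed fusions sorted by FACS into six bins by GFP to DsRed ratio, PSI derived from sequencing read proportions per bin multiplied by bin number.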

Variant	protein stability index
FQGSMRIFTAKLPHPDLPAEEKEQ	2.08
FQGSMRIFTMKLPHPDLPAEEKEQ	1.37
FQGSMRIFTFKLPHPDLPAEEKEQ	2.03
FQGSMRIFTVKLPHPDLPAEEKEQ	2.22
FQGSMRIFTWKLPHPDLPAEEKEQ	1.81
FQGSMRIFTPKLPHPDLPAEEKEQ	3.29
FQGSMRIFTRKLPHPDLPAEEKEQ	1.61
FQGSMRIFTHKLPHPDLPAEEKEQ	2.37
FQGSMRIFTKVLPHPDLPAEEKEQ	2
FQGSMRIFTKRLPHPDLPAEEKEQ	2.06
FQGSMRIFTKALPHPDLPAEEKEQ	1.68
FQGSMRIFTKCLPHPDLPAEEKEQ	3.14
FQGSMRIFTKLLPHPDLPAEEKEQ	1.65
FQGSMRIFTKYLPHPDLPAEEKEQ	1.71
FQYSMRIFTKKLPHPDLPAEEKEQ	2.57
FQQSMRIFTKKLPHPDLPAEEKEQ	3.51
FQRSMRIFTKKLPHPDLPAEEKEQ	3.64
FQKSMRIFTKKLPHPDLPAEEKEQ	3.37
FQTSMRIFTKKLPHPDLPAEEKEQ	3
FQSSMRIFTKKLPHPDLPAEEKEQ	2.31
FQDSMRIFTKKLPHPDLPAEEKEQ	1.61
FQNSMRIFTKKLPHPDLPAEEKEQ	2.2
FQASMRIFTKKLPHPDLPAEEKEQ	2.61
FQLSMRIFTKKLPHPDLPAEEKEQ	2.23

Variant	protein stability index
FQGSMRAFTKKLPHPDLPAEEKEQ	2.56
FQGSMRWFTKKLPHPDLPAEEKEQ	3.05
FQGSMRRFTKKLPHPDLPAEEKEQ	4.38
FQGSMRMFTKKLPHPDLPAEEKEQ	2.44
FQGSMRNFTKKLPHPDLPAEEKEQ	3.65
FQGSMRFFTKKLPHPDLPAEEKEQ	2.94
FQGSMRKFTKKLPHPDLPAEEKEQ	3.69
FQGSMRPFTKKLPHPDLPAEEKEQ	1.93
FQGSMRLFTKKLPHPDLPAEEKEQ	1.84
FQGSMRIFTKKGPHPDLPAEEKEQ	1.72
FQGSMRIFTKKSPHPDLPAEEKEQ	2.41
FQGSMRIFTKKIPHPDLPAEEKEQ	1.91
FQGSMRIFTKKKPHPDLPAEEKEQ	1.86
FQGSMRIFTKKHPHPDLPAEEKEQ	2.17
FQGSMRIFTKKMPHPDLPAEEKEQ	2.37
FQGSMRIFTKKAPHPDLPAEEKEQ	1.62
FQGSMRIFTKKEPHPDLPAEEKEQ	1.71
FDGSMRIFTKKLPHPDLPAEEKEQ	4.49
FMGSMRIFTKKLPHPDLPAEEKEQ	3.46
FGGSMRIFTKKLPHPDLPAEEKEQ	3.26
FFGSMRIFTKKLPHPDLPAEEKEQ	2.99
FAGSMRIFTKKLPHPDLPAEEKEQ	2.29
FQGSMRIFTKKLPHMDLPAEEKEQ	2.1
FQGSMRIFTKKLPHGDLPAEEKEQ	1.92

Variant	protein stability index
FQGSMRIFTKKLPHLDLPAEEKEQ	1.85
FQGSMRIFTKKLPHTDLPAEEKEQ	1.93
FQGSMRIFTKKLPHVDLPAEEKEQ	1.62
FQGSMRIFTKKLPHYDLPAEEKEQ	1.34
FQGSMRIFTKKLPHSDLPAEEKEQ	1.94
FQGSMRIFTKKLPHRDLPAEEKEQ	2.03
FQGSMRIFTKKLPHHDLPAEEKEQ	2.15
FQGSMRIFTKKLPHIDLPAEEKEQ	1.75
FQGSMRIFTKKLPHPDLPAEEKQQ	1.64
FQGSMRIFTKKLPHPDLPAEEKCQ	1.79
FQGSMRIFTKKLPHPDLPAEEKRQ	1.71
FQGSMRIFTKKLPHPDLPAEEKNQ	2.1
FQGSMRIFTKKLPHPDLPAEEKGQ	2.21
FQGSMRIFTKKLPHPDLPAEEKMQ	1.85
FQGSMRIFTKKLPHPDLPAEEKSQ	1.98
FQGSARIFTKKLPHPDLPAEEKEQ	2.1
FQGSVRIFTKKLPHPDLPAEEKEQ	2.17
FQGSPRIFTKKLPHPDLPAEEKEQ	1.87
FQGSWRIFTKKLPHPDLPAEEKEQ	2.14
FQGSNRIFTKKLPHPDLPAEEKEQ	2.15
FQGSKRIFTKKLPHPDLPAEEKEQ	2.07
FQGSMRIFTKKLEHPDLPAEEKEQ	1.98
FQGSMRIFTKKLVHPDLPAEEKEQ	1.75
FQGSMRIFTKKLIHPDLPAEEKEQ	1.86

Variant	protein stability index
FQGSMRIFTKKLCHPDLPAEEKEQ	2.05
FQGSMRIFTKKLRHPDLPAEEKEQ	2.17
FQGSMRIFTKKLFHPDLPAEEKEQ	1.99
FQGSMRIFTKKLAHPDLPAEEKEQ	2.94
FQGSMRIFTKKLLHPDLPAEEKEQ	1.65
FQGSMRIFTKKLKHPDLPAEEKEQ	2.15
FQGSMRIFTKKLNHPDLPAEEKEQ	2.35
FQGSMRIFTKKLPHPDLPPEEKEQ	2.5
FQGSMRIFTKKLPHPDLPCEEKEQ	1.96
FQGSMRIFTKKLPHPDLPGEEKEQ	1.63
FQGSMRIFTKKLPHPDLPSEEKEQ	2.08
FQGSMRIFTKKLPHPDLPQEEKEQ	2.31
FQGSMRIFTKKLPHPDLPNEEKEQ	1.79
FQGSMRIFTKKLPHPPLPAEEKEQ	1.73
FQGSMRIFTKKLPHPELPAEEKEQ	2.18
FQGSMRIFTKKLPHPILPAEEKEQ	2.13
FQGSMRIFTKKLPHPCLPAEEKEQ	1.54
FQGSMRIFTKKLPHPMLPAEEKEQ	1.76
FQGVMRIFTKKLPHPDLPAEEKEQ	1.95
FQGFMRIFTKKLPHPDLPAEEKEQ	1.1
FQGAMRIFTKKLPHPDLPAEEKEQ	2.33
FQGEMRIFTKKLPHPDLPAEEKEQ	2.28
FQGTMRIFTKKLPHPDLPAEEKEQ	1.98
FQGQMRIFTKKLPHPDLPAEEKEQ	2.25

Variant	protein stability index
FQGCMRIFTKKLPHPDLPAEEKEQ	1.39
FQGIMRIFTKKLPHPDLPAEEKEQ	2.27
FQGNMRIFTKKLPHPDLPAEEKEQ	1.79
FQGKMRIFTKKLPHPDLPAEEKEQ	2.37
FQGSMRIFTKKLPHPDLPAEEKER	2.15
FQGSMRIFTKKLPHPDLPAEEKED	2.32
FQGSMRIFTKKLPHPDLPAEEKEI	2.13
FQGSMRIFTKKLPHPDLPAEEKEG	2.42
FQGSMRIFTKKLPHPDLPAEEKEH	2.05
FQGSMRIFTKKLPHPDLPAEEKES	2.14
FQGSMRIFTKKLPHPDLPAEEKEC	2.15
FQGSMRIFTKKLPHPDLPAEEKEP	1.83
FQGSMRIFTKKLPHPDLPAEEKEA	2.05
FQGSMRIFTKKLPHPDLPAEEKEY	1.62
FQGSMRIFTKKLPHPDLPAEEKEK	2.37
FQGSMRIFTKKLPHPDLPAWEKEQ	2.38
FQGSMRIFTKKLPHPDLPAVEKEQ	1.5
FQGSMRIFTKKLPHPDLPAKEKEQ	2.51
FQGSMRIFTKKLPHPDLPACEKEQ	2.12
FQGSMRIFTKKLPHPDLPAAEKEQ	1.9
FQGSMRIFTKKLPHPDLPAIEKEQ	2.03
FQGSMRIFTKKLPHPDLAAEEKEQ	2.07
FQGSMRIFTKKLPHPDLVAEEKEQ	1.71
FQGSMRIFTKKLPHPDLHAEEKEQ	1.82

Variant	protein stability index
FQGSMRIFTKKLPHPDLSAEEKEQ	2.21
FQGSMRIFTKKLPHPDLYAEEKEQ	1.74
FQGSMRIFTKKLPHPDLRAEEKEQ	1.88
FQGSMRIFTKKLPHPDLLAEEKEQ	1.75
HQGSMRIFTKKLPHPDLPAEEKEQ	4.53
DQGSMRIFTKKLPHPDLPAEEKEQ	5.37
VQGSMRIFTKKLPHPDLPAEEKEQ	4.52
PQGSMRIFTKKLPHPDLPAEEKEQ	4.83
IQGSMRIFTKKLPHPDLPAEEKEQ	4.17
NQGSMRIFTKKLPHPDLPAEEKEQ	5.22
RQGSMRIFTKKLPHPDLPAEEKEQ	4.95
FQGSMRIFTKKLPHPDLPAEEDEQ	2.08
FQGSMRIFTKKLPHPDLPAEEWEQ	1.93
FQGSMRIFTKKLPHPDLPAEELEQ	1.78
FQGSMRIFTKKLPHPDLPAEEHEQ	1.22
FQGSMRIFTKKLPHPDLPAEEAEQ	2.23
FQGSMRIFTKKLPHPDLPAEEYEQ	1.54
FQGSMRIFTKKLPHPDLPAEEPEQ	2.09
FQGSMRIPTKKLPHPDLPAEEKEQ	3.42
FQGSMRIHTKKLPHPDLPAEEKEQ	3.33
FQGSMRIYTKKLPHPDLPAEEKEQ	2.35
FQGSMRIWTKKLPHPDLPAEEKEQ	1.56
FQGSMRIKTKKLPHPDLPAEEKEQ	3.64
FQGSMRISTKKLPHPDLPAEEKEQ	3.29

Variant	protein stability index
FQGSMRIETKKLPHPDLPAEEKEQ	4.01
FQGSMRIFTKKLPHPDKPAEEKEQ	1.66
FQGSMRIFTKKLPHPDDPAEEKEQ	2.32
FQGSMRIFTKKLPHPDNPAEEKEQ	2.26
FQGSMRIFTKKLPHPDSPAEEKEQ	1.95
FQGSMRIFTKKLPHPDGPAEEKEQ	2.19
FQGSMRIFTKKLPHPDIPAEEKEQ	1.89
FQGSMRIFTKKLPHPDWPAEEKEQ	2.06
FQGSMRIFTKKLPHPDYPAEEKEQ	2.5
FQGSMRIFTKKLPHPDTPAEEKEQ	2.1
FQGSMRIFTKKLPHPDEPAEEKEQ	2.24
FQGSMRIFTKKLPHPDFPAEEKEQ	2.36
FQGSMRIFTKKLPHPDQPAEEKEQ	2.34
FQGSMRIFTKKLPKPDLPAEEKEQ	1.77
FQGSMRIFTKKLPTPDLPAEEKEQ	2.36
FQGSMRIFTKKLPCPDLPAEEKEQ	2.27
FQGSMRIFTKKLPAPDLPAEEKEQ	1.9
FQGSMRIFTKKLPYPDLPAEEKEQ	1.8
FQGSMRIFTKKLPSPDLPAEEKEQ	1.65
FQGSMRIFPKKLPHPDLPAEEKEQ	3.14
FQGSMRIFNKKLPHPDLPAEEKEQ	2.65
FQGSMRIFIKKLPHPDLPAEEKEQ	1.66
FQGSMRIFWKKLPHPDLPAEEKEQ	2.23
FQGSMRIFYKKLPHPDLPAEEKEQ	1.94

Variant	protein stability index
FQGSMRIFMKKLPHPDLPAEEKEQ	2.03
FQGSMRIFRKKLPHPDLPAEEKEQ	2.23
FQGSMRIFDKKLPHPDLPAEEKEQ	2.73
FQGSMRIFHKKLPHPDLPAEEKEQ	2
FQGSMRIFVKKLPHPDLPAEEKEQ	1.5
FQGSMFIFTKKLPHPDLPAEEKEQ	1.76
FQGSMNIFTKKLPHPDLPAEEKEQ	1.3
FQGSMTIFTKKLPHPDLPAEEKEQ	2.01
FQGSMCIFTKKLPHPDLPAEEKEQ	1.76
FQGSMEIFTKKLPHPDLPAEEKEQ	1.81
FQGSMYIFTKKLPHPDLPAEEKEQ	2.24
FQGSMQIFTKKLPHPDLPAEEKEQ	2.22
FQGSMLIFTKKLPHPDLPAEEKEQ	2.31
FQGSMKIFTKKLPHPDLPAEEKEQ	1.89
FQGSMSIFTKKLPHPDLPAEEKEQ	3.04
FQGSMRIFTKKLPHPDLPAEHKEQ	2.25
FQGSMRIFTKKLPHPDLPAEIKEQ	2.45
FQGSMRIFTKKLPHPDLPAELKEQ	2.04
FQGSMRIFTKKLPHPDLPAEVKEQ	1.4
FQGSMRIFTKKLPHPDLPAENKEQ	2.36
